From paper PMC9207808 (ACS Chemical Biology, 2022)
Where “and” joins values, the source holds several entries; their conditions need not be identical. Equal values may be shown once. Read-outs that look alike come from different tables or passages of the source. Residues, ends and D or L forms follow the SMILES beside them. No end group written: not given here.

How the values were obtained:
[1] = molecular target: Doc1-122–His6 (DocSTm toxin) (Salmonella typhimurium); experiment: SPR; Biacore S200; Doc-His6 captured on a Series S NTA chip (200-400 RU); peptide as analyte, single-cycle kinetics, six concentrations (3-fold dilutions), 30 uL/min; 22 C; 10 mM HEPES, 500 mM NaCl, 50 uM EDTA, 0.005% TWEEN 20, pH 8.0; kinetic 1:1 fit
[2] = molecular target: Doc1-122–His6 (DocSTm toxin) (Salmonella typhimurium); experiment: as above; remark: listed apart in the source
[3] = molecular target: Doc1-122–His6 (DocSTm toxin) (Salmonella typhimurium); experiment: as above; remark: listed apart in the source
DocSTm [4] = experiment: Surface plasmon resonance binding to immobilised Doc; set-up: species or system S. Typhimurium; conditions: for koff × 10^-6 / kon × 10^6: 1:1 kinetic fit, mean ± SD of at least 3 replicates; for kon × 10^6: single-cycle kinetics (multicycle for PhdSTm1-73); for Half-life of the complex: t1/2 = ln2 / koff
How it was run: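 Binding constants are means ± SD of at least three replicates: steady-state Kd directly, or Kd calculated from kinetic kon and koff. Sensorgrams were double-referenced and fitted 1:1 after 80 s analyte injections (30 μL/min), either multicycle or single-cycle, over NTA-immobilised Doc. Running buffer was HEPES/500 mM NaCl/EDTA/Tween pH 8.0 at 22 °C.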

DocSTm [5] = experiment: Dot blot phosphorylation assay (EF-Tu phosphorylation by Doc); format: biochemical, S. Typhimurium; conditions: DocSTm 1 μM, EF-TuSTm 3 μM, ATP 1 mM; for inhibition of EF-TuSTm phosphorylation by DocSTm (in words): α-pThr, inhibitor 10 μM to 5 nM (3-fold dilutions), 16 h at RT
How it was run: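 Doc-mediated phosphorylation of EF-Tu was run for 16 h at RT, then the samples were spotted on nitrocellulose. Phospho-EF-Tu was detected with a rabbit monoclonal anti-phosphothreonine antibody and an HRP anti-rabbit secondary, read by chemiluminescence.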

[6] = test system: S. Typhimurium (14028) Δphd-doc::Km strains coexpressing DocSTm; experiment: Growth rescue experiment in S. Typhimurium; format: cell-based; conditions: coexpression of DocSTm (pBAD33, arabinose) and Phd construct (pCA24N, basal expression); OD600 over time, M9 minimal medium; average of three independent experiments
Method: The cotransformations above were also performed with an empty pBAD33 plasmid, as a control for the absence of DocSTm expression.
For the growth rescue experiment, overnight (1% tryptone, 0.5% yeast extract, 0.5% NaCl, 1% glucose, 100 μg/mL of carbenicillin, and 34 μg/mL of chloramphenicol) cultures of the generated S. Typhimurium strains were diluted to an OD600 of approximately 0.006 into fresh M9 minimal medium supplemented with 0.5% or 1% arabinose, 0.4% glycerol, 0.4% casamino acids, 100 μg/mL of carbenicillin, and 34 μg/mL of chloramphenicol. Cell growth at a given time was monitored at OD600 with a Genesys 140 Visible Spectrophotometer (Thermo Scientific).

DocSTm [7] = experiment: Differential scanning fluorimetry (thermal stabilisation of Doc); format: binding, S. Typhimurium; conditions: for melting temperature shift ΔTm: DSF, DocSTm 5 μM, analyte 50 μM, Tm with analyte minus Tm of free DocSTm (42.9 ± 0.9 °C), SYPRO Orange, 20 mM K2HPO4, 50 mM (NH4)2SO4, pH 8.0, triplicate; for Average Tm / Tm: DocSTm 5 µM + 50 µM binder; for Average Tm: average of 3 replicates
How it was run: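 Tm values come from fitting the sigmoidal melt region to a Boltzmann function. Doc (5 μM final) was ramped 25–95 °C with SYPRO Orange (3× final) in pH 8.0 buffer of 20 mM K2HPO4 and 50 mM (NH4)2SO4; each condition in triplicate.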

[8] = molecular target: Doc1-122–His6 (DocSTm toxin) (Salmonella typhimurium); experiment: SPR; Biacore S200; Doc-His6 captured on a Series S NTA chip (200-400 RU); peptide as analyte, single-cycle kinetics, six concentrations (3-fold dilutions), 30 uL/min; 22 C; 10 mM HEPES, 500 mM NaCl, 50 uM EDTA, 0.005% TWEEN 20, pH 8.0; kinetic 1:1 fit; remark: listed apart in the source
[9] = molecular target: Doc1-122–His6 (DocSTm toxin) (Salmonella typhimurium); experiment: as above; remark: listed apart in the source
[10] = molecular target: Doc1-122–His6 (DocSTm toxin) (Salmonella typhimurium); experiment: as above; remark: listed apart in the source
[11] = molecular target: Doc1-122–His6 (DocSTm toxin) (Salmonella typhimurium); experiment: as above; remark: listed apart in the source
[12] = molecular target: Doc toxin of Salmonella enterica serovar Typhimurium (DocSTm) (Salmonella enterica serovar Typhimurium); experiment: SPR; DocSTm immobilised on a Series S NTA chip (150 nM, 200-400 RU); analytes in single-cycle kinetics, typically six concentrations, kinetic 1:1 fit; 22 °C; 10 mM HEPES, 500 mM NaCl, 50 μM EDTA, 0.005% TWEEN 20, pH 8.0

peptide 5 (PhdSTm52-73-E55A)
Kd [1]: 0.0489 nM and 0.0513 nM and 0.0469 nM
koff [1]: 7.11e-05 s⁻¹ and 7.49e-05 s⁻¹ and 8.02e-05 s⁻¹
kon [1]: 1.5e+06 1/(M s) (2×) and 1.7e+06 1/(M s)
Kd [2]: 0.049 nM
koff [2]: 7.5e-05 s⁻¹
kon [2]: 1.54e+06 M⁻¹ s⁻¹

peptide 8 (PhdSTm52-73-M60A)
Kd [3]: 0.67 nM and 0.611 nM and 0.485 nM
koff [3]: 0.000966 s⁻¹ and 0.00091 s⁻¹ and 0.00181 s⁻¹
kon [3]: 1.44e+06 M⁻¹ s⁻¹ and 1.49e+06 M⁻¹ s⁻¹ and 3.73e+06 M⁻¹ s⁻¹
Kd [2]: 0.553 nM
koff [2]: 0.00122 s⁻¹
kon [2]: 2.22e+06 M⁻¹ s⁻¹

CC[C@H](C)[C@H](NC(=O)[C@H](C)NC(=O)[C@H](C)NC(=O)[C@H](Cc1ccccc1)NC(=O)[C@H](CCC(=O)O)NC(=O)[C@H](CC(=O)O)NC(=O)[C@H](CC(=O)O)NC(=O)[C@H](CCSC)NC(=O)[C@H](Cc1c[nH]c2ccccc12)NC(C)=O)C(=O)N[C@@H](CCSC)C(=O)N[C@@H](C)C(=O)N[C@H](C(=O)N[C@@H](Cc1c[nH]cn1)C(=O)NCC(=O)N[C@@H](CC(N)=O)C(=O)N[C@@H](CCC(=O)O)C(=O)N[C@@H](CC(C)C)C(=O)N[C@@H](CCCNC(=N)N)C(=O)N[C@@H](CCC(=O)O)C(=O)N[C@@H](C)C(=O)N[C@@H](C)C(=O)N[C@@H](CC(=O)O)C(=O)N[C@@H](CCCCN)C(=O)O)C(C)C [peptide 17] (Ac-WMDDEFAAIMAVHGNELREAADK-OH; C-terminus assumed)
affinity to DocSTm greater than that of peptides 7, 10 and 14 (DocSTm [4]; SPR Kd ratio): at least 12 fold
fold decrease in affinity (given as decrease/loss in Kd) compared with peptide 1 (DocSTm [4]; SPR Kd relative to wild-type peptide 1): 8- to 30 fold
Kd (DocSTm [4]; SPR kinetic fit, replicate 1): 2.1 nM
Kd (DocSTm [4]; SPR kinetic fit, replicate 2): 1.98 nM
Kd (DocSTm [4]; SPR kinetic fit, replicate 3): 1.02 nM
koff × 10^-6 (DocSTm [4]; SPR, 22 °C, pH 8.0): 5967 ± 404 ×10^-6 s-1
kon × 10^6 (DocSTm [4]; SPR, 22 °C, pH 8.0): 3.837 ± 1.398 ×10^6 M-1 s-1
Kd (DocSTm [4]; SPR, kinetic fit, KD calculated from mean koff and kon, SD propagated, 22 °C, pH 8.0): 1.55 ± 0.58 nM
Half-life of the complex (DocSTm [4]): 0.032 ± 0.002 h
inhibition of EF-TuSTm phosphorylation by DocSTm (in words) (DocSTm [5]): among the poorest inhibitors of EF-TuSTm phosphorylation
rescue of Salmonella growth from DocSTm-induced growth inhibition (in words) [6]: not able to counteract DocSTm-induced growth inhibition of Salmonella
melting temperature shift ΔTm (DocSTm [7]): 15.2 ± 1.0 °C
Average Tm (DocSTm [7]): 58.0 ± 0.4 °C
Tm (DocSTm [7]; replicate 1): 58.5 °C
Tm (DocSTm [7]; replicate 2): 57.9 °C
Tm (DocSTm [7]; replicate 3): 57.8 °C

peptide 6 (PhdSTm52-73-F56A)
Kd [8]: 1 nM and 0.919 nM and 0.745 nM
koff [8]: 0.000717 s⁻¹ and 0.000702 s⁻¹ and 0.00111 s⁻¹
kon [8]: 714000 M⁻¹ s⁻¹ and 764000 M⁻¹ s⁻¹ and 1.49e+06 M⁻¹ s⁻¹
koff [2]: 0.000843 s⁻¹
kon [2]: 989000 M⁻¹ s⁻¹

peptide 4 (PhdSTm52-73-D54A)
koff [2]: 6.2e-05 s⁻¹
kon [2]: 4.73e+06 M⁻¹ s⁻¹
Kd [9]: 0.0128 nM and 0.0166 nM and 0.0101 nM
koff [9]: 8.12e-05 s⁻¹ and 4.76e-05 s⁻¹ and 5.84e-05 s⁻¹
kon [9]: 4.89e+06 M⁻¹ s⁻¹ and 4.73e+06 M⁻¹ s⁻¹ and 4.58e+06 M⁻¹ s⁻¹

CC[C@H](C)[C@H](NC(=O)[C@H](C)NC(=O)[C@H](C)NC(=O)[C@H](Cc1ccccc1)NC(=O)[C@H](CCC(=O)O)NC(=O)[C@H](CC(=O)O)NC(=O)[C@H](CC(=O)O)NC(=O)[C@H](CCSC)NC(=O)[C@H](Cc1c[nH]c2ccccc12)NC(C)=O)C(=O)N[C@@H](CCSC)C(=O)N[C@@H](C)C(=O)N[C@H](C(=O)N[C@@H](Cc1c[nH]cn1)C(=O)NCC(=O)N[C@@H](CC(N)=O)C(=O)N[C@@H](CCC(=O)O)C(=O)N[C@@H](CC(C)C)C(=O)N[C@@H](CCCNC(=N)N)C(=O)N[C@@H](CCC(=O)O)C(=O)N[C@@H](CC(C)C)C(=O)N[C@@H](C)C(=O)N[C@@H](CC(=O)O)C(=O)N[C@@H](CCCCN)C(=O)O)C(C)C [peptide 1] (Ac-WMDDEFAAIMAVHGNELRELADK-OH)
Kd (DocSTm [4]; SPR kinetic fit, replicate 1): 0.0734 nM
Kd (DocSTm [4]; SPR kinetic fit, replicate 2): 0.0838 nM
Kd (DocSTm [4]; SPR kinetic fit, replicate 3): 0.0591 nM
Kd (DocSTm [4]; SPR kinetic fit, replicate 4): 0.0819 nM
koff × 10^-6 (DocSTm [4]; SPR, 22 °C, pH 8.0): 91 ± 11 ×10^-6 s-1
kon × 10^6 (DocSTm [4]; SPR, 22 °C, pH 8.0): 1.250 ± 0.259 ×10^6 M-1 s-1
Half-life of the complex (DocSTm [4]): 2.1 ± 0.3 h
concentration at which EF-TuSTm phosphorylation is fully inhibited (DocSTm [5]): ≥ 1 µM
inhibition of EF-TuSTm phosphorylation by DocSTm (in words) (DocSTm [5]): comparable inhibition of the kinase activity
rescue of Salmonella growth from DocSTm-induced growth inhibition (in words) [6]: only rescued growth after a delay and longer incubation times of 16–18 h
melting temperature shift ΔTm (DocSTm [7]): 28.8 ± 0.9 °C
Average Tm (DocSTm [7]): 71.7 ± 0.1 °C
Tm (DocSTm [7]; replicate 1): 71.8 °C
Tm (DocSTm [7]; replicate 2): 71.5 °C
Tm (DocSTm [7]; replicate 3): 71.6 °C

peptide 9 (PhdSTm52-73-V62A)
Kd [10]: 0.183 nM and 0.239 nM and 0.132 nM
koff [10]: 0.000329 s⁻¹ and 0.000394 s⁻¹ and 0.000442 s⁻¹
kon [10]: 1.8e+06 M⁻¹ s⁻¹ and 1.65e+06 M⁻¹ s⁻¹ and 3.35e+06 M⁻¹ s⁻¹
Kd [2]: 0.171 nM
koff [2]: 0.000388 s⁻¹
kon [2]: 2.27e+06 M⁻¹ s⁻¹

Ac-EFAAIMAVHGNELRELADK-OH [peptide 21 (PhdSTm55-73)]
Kd [2]: 0.396 nM
koff [2]: 0.000496 s⁻¹
kon [2]: 1.25e+06 M⁻¹ s⁻¹
Kd [11]: 0.41 nM and 0.412 nM and 0.365 nM
koff [11]: 0.000551 s⁻¹ and 0.000501 s⁻¹ and 0.000436 s⁻¹
kon [11]: 1.3e+06 1/(M s) and 1.2e+06 1/(M s) (2×)

Ac-EFAAIMAVHGNELRELA-OH [peptide 22 (PhdSTm55-71)]
koff [2]: 0.000503 s⁻¹
kon [2]: 1.45e+06 M⁻¹ s⁻¹
Kd [11]: 0.342 nM and 0.336 nM and 0.365 nM
koff [11]: 0.000521 s⁻¹ and 0.000492 s⁻¹ and 0.000495 s⁻¹
kon [11]: 1.5e+06 1/(M s) (2×) and 1.4e+06 1/(M s)

Ac-FAAIMAVHGNELREL-OH [peptide 23 (PhdSTm56-70)]
koff [2]: 0.00279 s⁻¹
kon [2]: 1.41e+06 M⁻¹ s⁻¹
Kd [11]: 1.85 nM and 1.94 nM and 2.18 nM
koff [11]: 0.00284 s⁻¹ and 0.00279 s⁻¹ and 0.00276 s⁻¹
kon [11]: 1.53e+06 M⁻¹ s⁻¹ and 1.44e+06 M⁻¹ s⁻¹ and 1.26e+06 M⁻¹ s⁻¹

Ac-WMDAEFAAIMAVHGNELRELADK [peptide 4 (Phd 52-73 D54A)]
Kd [12]: 0.013 nM
fold improvement of koff against peptide 1 [12]: 1.5 fold
fold improvement of kon against peptide 1 [12]: 4 fold

Ac-WMDDEAAAIMAVHGNELRELADK [peptide 6 (Phd 52-73 F56A)]
Kd [12]: 0.852 nM

Ac-WMDDEFAAIMAVHGNELREAADK [peptide 17 (Phd 52-73 L70A)]
Kd [12]: 1.55 nM

Ac-WMADEFAAIMAVHGNELRELADK [peptide 3 (Phd 52-73 D53A)]
Kd [12]: 0.013 nM
fold improvement of koff against peptide 1 [12]: 1.5 fold
fold improvement of kon against peptide 1 [12]: 4 fold
